Measurements as given in patent US20170002068A1 (YEDA RESEARCH AND DEVELOPMENT, published 2017).

T1: murine amphiregulin (mouse, UniProt P31955 94-191, limits assumed)
T1 construct: also called mAREG; murine AREG
T1 sequence (looked up): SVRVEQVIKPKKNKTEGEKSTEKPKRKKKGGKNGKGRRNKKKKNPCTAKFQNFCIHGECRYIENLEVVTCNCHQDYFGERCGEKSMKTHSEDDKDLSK

T2: human neuregulin 1 (human, UniProt Q02297-6 177-241, limits assumed)
T2 construct: also called hNRG1; NRG1
T2 sequence (looked up): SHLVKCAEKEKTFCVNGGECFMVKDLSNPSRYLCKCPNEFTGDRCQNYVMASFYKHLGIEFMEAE

T3: murine heparin-binding EGF-like growth factor (mouse, UniProt Q06186 63-148, limits assumed)
T3 construct: also called mHB-EGF
T3 sequence (looked up): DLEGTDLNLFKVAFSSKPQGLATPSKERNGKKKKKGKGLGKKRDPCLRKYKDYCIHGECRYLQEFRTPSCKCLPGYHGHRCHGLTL

T4: human betacellulin (human, UniProt P35070 32-111)
T4 construct: also called hBTC; BTC
T4 sequence (looked up): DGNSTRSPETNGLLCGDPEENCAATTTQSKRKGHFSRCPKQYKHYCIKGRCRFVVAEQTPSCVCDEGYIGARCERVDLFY

B1: AR558, anti-AREG monoclonal antibody (antibody, V domains shown)
VH: EVQLQQSGAELVKPGASVKLSCTASGFNIKDTYMHWVKQRPEQGLEWIGRIDPANRSTKYDPKFQGKATITADTSSNTADLHLSSLTSEDTAVYYCARLYGDSVWYFDVWGAGTTVTVSS
VL: QIVLTQSPAILSASPGEKVTMTCRAGSSVNYIHWYQQKPGSSPKPWIYATSNLASGVPARFSGSGSGTSYSLTISRVEAEDAATYYCQQWSGYPPMLTFGAGTKLELKR
notes: Mouse hybridoma mAb generated in AREG knockout mice; they may cover only the variable regions; also called mAb AR558
B2: human amphiregulin (ligand, UniProt P15514 101-198, looked up)
chain: SVRVEQVVKPPQNKTESENTSDKPKRKKKGGKNGKNRRNRKKKNPCNAEFQNFCIHGECKYIEHLEAVTCKCQQEYFGERCGEKSMKTHSMIDSSLSK
notes: also called AREG; hAREG
B3: AR30, anti-AREG monoclonal antibody (antibody, V domains shown)
VH: EVQLQQSGAELVRSGASVKLSCTASGFNIKDSYMHWVKQRPEQGLEWIGWVDPDNGDTEYAPEFQGRATLTADTFSSTAYLQLTSLTSEDTAVYYCNAPSTYGHYGFAYWGQGTLVTVSA
VL: DIVMTQAAPSVPVTPGESVSISCRSSKSLLHSNGKAYLYWFLQRPGQSPQLLIYRMSNLASGVPDRFSGSGSGTAFTLRISRVEAEDVGVYYCMQHLEYPLTFGAGTKLELKR
notes: Mouse hybridoma mAb raised against TRX-fused EGF-like domain of human AREG; they may cover only the variable regions; also called mAb AR30; AR30 mAb

What was measured:
human amphiregulin [1] = target: B2; experiment: ELISA, wells coated with human AREG at 0, 10, 50, 100, 500 ng/mL, antibody 2 h, anti-mouse-HRP, ABTS, absorbance 415 nm
Method: Thereafter, wells were incubated for two hours with an anti-mouse antibody conjugated to HRP, followed by a 30 minute incubation with ATBS. Signals were determined using an ELISA reader (set at 415 nm).

murine amphiregulin [2] = target: T1, murine amphiregulin; experiment: ELISA, wells coated with 400 ng/mL ligand, mAb 2 h, anti-mouse-HRP, ABTS, 415 nm (legend; the y axis has no title)
Method: (§1) Thereafter, wells were incubated for two hours with an anti-mouse antibody conjugated to HRP, followed by a 30 minute incubation with ATBS. Signals were determined using an ELISA reader (set at 415 nm). […] Thereafter, wells were incubated for two hours with an anti-mouse antibody conjugated to HRP, followed by a 30-min incubation with ATBS. Signals were determined using an ELISA reader (set at 415 nm). […] Thereafter, wells were incubated for two hours with an anti-mouse antibody conjugated to HRP, followed by a 20-min incubation with ATBS. Signals were determined using an ELISA reader (set at 420 nm).

[3] = target: T5, human heparin-binding EGF-like growth factor (human, UniProt Q99075 63-148); experiment: as above
T5 construct: also called hHB-EGF; HB-EGF
Method: as §1

[4] = target: T6, human epidermal growth factor (human, UniProt P01133 971-1023); experiment: ELISA, wells coated with ligand at 400, 200, 100, 50, 25 and 10 ng/mL, mAb 1 µg/mL 2 h, anti-mouse-HRP, ABTS; absorbance 415 nm on the sheet
T6 construct: also called hEGF; EGF
Method: as §1

[5] = target: T7, Epidermal Growth Factor Receptor (human, UniProt P00533 25-1210); experiment: displacement of 125I-EGF (50 ng/mL) from MCAS ovarian cancer cells by unlabeled ligand, 3 h on ice, cell-associated radioactivity
T7 construct: whole, on cells; also called EGFR; ERBB1
Method: (§2) The cells were later washed and lysed, and the associated radioactivity was determined. […] The cells were later washed and lysed in 1 N NaOH. Cell-associated radioactivity was determined. […] Washed immunocomplexes, along with whole extracts, were immunoblotted with the indicated antibodies.

[6] = target: T7, Epidermal Growth Factor Receptor; experiment: cell-based or functional assay
[7] = target: T7, Epidermal Growth Factor Receptor; experiment: displacement of 125I-EGF (50 ng/mL) by unlabeled ligand on MCAS ovarian cancer cells, on ice
Method: as §2

murine amphiregulin [8] = target: T1, murine amphiregulin; experiment: SPR (BIAcore 3000), ligand in solution over AR30-coated surface
Method: (§3) SPR was performed on a BIAcore 3000 instrument (BIAcore, Uppsala, Sweden). Proteins were diluted in 100 mM Na-acetate (pH 4.6) to 20 μg/ml and immobilized on a CM5 sensor chip using a standard protocol of amine coupling. The protein solution was flown over the chip for 5 minutes at a rate of 20 μl/min. […] The net signal was obtained by subtracting the blank signal (plain dextran matrix) from the signal recorded from the immobilized surface. The association phase for analyte binding to all ligands was followed for 4 minutes, and dissociation phases were monitored for 3 minutes. Surface regeneration between consecutive binding cycles included a 1 min injection of 2 mM NaOH. The response was monitored as a function of time (sensorgram). Multi-concentration data underwent fitting using the software BIAevaluation 3.2.

human neuregulin 1 = target: T2, human neuregulin 1; experiment: as above
Method: as §3

[9] = target: T6, human epidermal growth factor; experiment: as above
Method: as §3

[10] = target: T3, murine heparin-binding EGF-like growth …; experiment: as above
Method: as §3

human amphiregulin [11] = target: B2; experiment: as above
Method: as §3

[12] = target: T8, human transforming growth factor alpha (human, UniProt P01135 40-89); experiment: as above
T8 construct: also called hTGF-alpha; TGF-alpha
Method: as §3

human epigen = target: T9, human epigen (human, UniProt Q6UW88 24-104, limits assumed); experiment: as above
T9 construct: also called hEPG; EPG
Method: as §3

[13] = target: T5, human heparin-binding EGF-like growth …; experiment: as above
Method: as §3

human betacellulin = target: T4, human betacellulin; experiment: as above
Method: as §3

T5 sequence (Q99075 63-148 limits assumed): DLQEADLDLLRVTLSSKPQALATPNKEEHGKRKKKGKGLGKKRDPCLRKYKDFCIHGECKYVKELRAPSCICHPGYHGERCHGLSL
T6 sequence (P01133 971-1023 limits assumed): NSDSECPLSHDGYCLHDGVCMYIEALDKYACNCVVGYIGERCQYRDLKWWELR
T9 sequence (Q6UW88 24-104 limits assumed): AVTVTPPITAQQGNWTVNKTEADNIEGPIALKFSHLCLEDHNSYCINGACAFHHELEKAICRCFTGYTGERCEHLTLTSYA

B1: binds (human amphiregulin [1]); no binding (tested: 400 ng/mL coated ligand) (murine amphiregulin [2]); no binding (tested: 400 ng/mL coated ligand) [3]. B1: no binding (tested: 400 ng/mL coated ligand, mAb 1 µg/mL) [4].

B2 was tested, and the “IC50 (read off the curve)” value [5] was ~0.1 µg/mL, the “endocytosis-mediated downregulation of EGFR (MCAS cells, 125I-EGF binding after stimulation)” value [6] was ~30% and the “fold lower binding affinity compared to EGF” value [7] was ~100 fold.

B3 was tested, and the Kd (murine amphiregulin [8]) was > 10 µM, the Kd (human neuregulin 1) was > 10 µM and the Kd [9] was > 10 µM. The Kd [10] was 6.65 µM, the Kd (human amphiregulin [11]) was 0.0017 µM and the Kd [12] was > 10 µM. The Kd (human epigen) was > 10 µM, the Kd [13] was 0.08 µM and the Kd (human betacellulin) was > 10 µM.
